Data as given in article doi:10.1101/2025.08.01.668090, “Target Preference Maps: A machine learning model generalizing transferable drug-receptor interactions and guiding drug discovery” (bioRxiv, 2025).
Where no end group is shown, it is not given here.

Biological target: T1, N-terminal domain of T. brucei PEX14 (residues 19-84) (T. brucei, UniProt Q38CL4 19-84)
T1 construct: also called N-His-PEX14; source: E. coli BL21(DE3), purified (Ni-NTA, Superdex 75); not shown: His tag, N-terminal, kept
T1 sequence (looked up): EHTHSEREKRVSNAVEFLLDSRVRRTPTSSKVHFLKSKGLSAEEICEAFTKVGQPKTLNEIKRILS
Experiment: AlphaScreen or HTRF; 3 nM N-His-PEX14 with 10 nM biotinylated PEX5-derived peptide in PBS with 5 mg/mL BSA and 0.01 % (v/v) Tween-20; streptavidin donor beads and nickel chelate acceptor beads, 5 ug/mL each; competition with small-molecule inhibitors (600-0 uM), 5% DMSO
Details: both partners purified

B1: biotinylated PEX5-derived peptide (ALSENWAQEFLA) (peptide)
peptide: ALSENWAQEFLA
modifications: also: biotinylated (position not given here)
notes: PEX5-derived peptide with a WxxxF motif; Held on streptavidin donor beads by its biotin; The same peptide was used with PEX14 of all three species
binding result: binds
